Experimental findings from publication PMC12564070, “Rapid and Quantitative Detection of TNF-α in Human Tears Using a Portable Electrochemiluminescence-Based Device” are described below.

One data set concerns the target IL-6 (UniProt P05231 30-212). As to the kind of experiment: electrochemiluminescence aptasensor (Apt-VSM/ITO electrode); 1 ng/mL IL-6, interference test; negligible ECL variation; Aptamer immobilized on VSM/ITO electrode, 0.5% BSA block, 0.1 M PBS rinse; binding buffer, pH and temperature not given in the material.
The next data set addresses TNF-alpha (Homo sapiens, UniProt P01375 77-233). Description: electrochemiluminescence aptasensor (Apt-VSM/ITO electrode); linear 0.1-200 pg/mL, LOD 0.089 pg/mL; Ru luminophore/TPrA; Aptamer immobilized on VSM/ITO electrode, 0.5% BSA block, 0.1 M PBS rinse; binding buffer, pH and temperature not given in the material. The settings on record: protein: commercial; chain copies: 3.

Sequence of TNF-alpha (P01375 77-233): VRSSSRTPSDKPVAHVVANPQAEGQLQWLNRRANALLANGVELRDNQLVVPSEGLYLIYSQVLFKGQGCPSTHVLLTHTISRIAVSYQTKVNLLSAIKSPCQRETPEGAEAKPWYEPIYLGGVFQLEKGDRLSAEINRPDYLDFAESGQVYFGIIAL
Sequence of IL-6 (P05231 30-212): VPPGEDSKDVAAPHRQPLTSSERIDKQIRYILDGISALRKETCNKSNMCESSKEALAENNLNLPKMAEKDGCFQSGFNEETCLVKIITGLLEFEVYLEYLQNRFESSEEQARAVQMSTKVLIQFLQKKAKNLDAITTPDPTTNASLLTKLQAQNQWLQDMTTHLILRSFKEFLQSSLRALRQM

B1: TNF-alpha aptamer (ssDNA)
DNA: GCGCCACTACAGGGGAGCTGCCATTCGAATAGGTGGGCCGC
modifications: amino-modified (end not stated), coupled to GPTMS epoxy groups on VSM/ITO electrode
For the molecule B1, the results for the binding result with IL-6 and in the data set with TNF-alpha were “no binding” and “binds”, respectively.
